# Patent US20200148741A1
# T1: recombinant toxic shock syndrome toxin-1 (TSST-1), mature protein with N-terminal His6-tag (Staphylococcus aureus), P06886
# T1 chain: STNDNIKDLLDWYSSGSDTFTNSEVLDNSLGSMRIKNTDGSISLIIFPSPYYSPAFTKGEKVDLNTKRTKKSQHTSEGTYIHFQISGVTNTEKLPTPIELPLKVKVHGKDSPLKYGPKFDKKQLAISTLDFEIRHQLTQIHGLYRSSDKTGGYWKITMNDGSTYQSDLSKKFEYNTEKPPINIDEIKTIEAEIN
# T2: recombinant staphylococcal enterotoxin B (SEB), mature protein with N-terminal His6-tag (Staphylococcus aureus COL), P01552
# T2 chain: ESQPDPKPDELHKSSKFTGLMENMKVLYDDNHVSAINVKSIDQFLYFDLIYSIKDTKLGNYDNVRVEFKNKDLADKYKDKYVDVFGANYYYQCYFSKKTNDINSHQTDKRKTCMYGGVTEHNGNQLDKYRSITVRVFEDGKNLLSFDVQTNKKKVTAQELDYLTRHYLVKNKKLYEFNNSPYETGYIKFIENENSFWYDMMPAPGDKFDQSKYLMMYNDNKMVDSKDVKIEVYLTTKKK
# Columns and labels:
# [1] = target: T1, recombinant toxic shock syndrome …
# [2] = target: T2, recombinant staphylococcal enterotoxin …
binder,measurement,setting,value
"DSDSWTLR (modifications not checked) [pB2-6, immobilized for Surface Plasmon Resonance]",Kd,[1],1200 nM
same,koff,[1],0.00304 s⁻¹
same,kon,[1],2530 M⁻¹ s⁻¹
same,Kd,[2],3900 nM
same,koff,[2],0.0019 s⁻¹
same,kon,[2],491 M⁻¹ s⁻¹
